For one test, the target named is T1, human CD4 on cells (human, UniProt P01730 26-458).
T1 construct: whole, on cells; also called CD4+ T cells; HEK-CD4-IFN-γ cells
In words: FACS on CD4+ T cells.

Test [1] addresses T2, human IL-12 receptor complex (human, UniProt P42701 24-662; Q99665 24-862). The test can be described thus: cell-based or functional assay.
The target in test [2] is T3, human PD-1 (human, UniProt Q15116 25-167, limits assumed).
T3 construct: nivolumab is called an anti-human PD-1 antibody; also called hPD-1
T3 sequence (Q15116 25-167 limits assumed): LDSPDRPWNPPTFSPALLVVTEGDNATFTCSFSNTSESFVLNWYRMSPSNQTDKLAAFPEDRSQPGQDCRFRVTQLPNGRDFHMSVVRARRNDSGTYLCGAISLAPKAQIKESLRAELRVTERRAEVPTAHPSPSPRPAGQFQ
The test can be described thus: Kd to PD-1 as printed for the construct in Table 19; method not told there; same value as for the parental anti-PD-1 antibody.

In test [3] the target is T3, human PD-1. In words: Kd column of Table 18; same value as the antibody in Table 17.
The target of test [4] is T2, human IL-12 receptor complex. In words: cell-based or functional assay. The source holds these as a separate data set.
For test [5], the target named is human PD-1 overexpressed on HEK-Blue reporter cells (human, UniProt Q15116 25-288). In words: cell-based or functional assay.
human PD-1 overexpressed on HEK-Blue reporter cells, sequence (Q15116 25-288): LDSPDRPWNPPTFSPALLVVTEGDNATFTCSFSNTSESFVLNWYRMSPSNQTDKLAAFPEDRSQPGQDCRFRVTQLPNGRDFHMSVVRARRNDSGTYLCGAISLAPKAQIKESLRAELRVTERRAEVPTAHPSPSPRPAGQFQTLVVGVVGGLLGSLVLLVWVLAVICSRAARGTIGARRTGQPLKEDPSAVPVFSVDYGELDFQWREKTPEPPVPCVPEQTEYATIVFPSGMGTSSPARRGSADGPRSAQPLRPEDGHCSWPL
Another test deals with T4, mouse PD-1 (mouse, UniProt Q02242 25-167, limits assumed).
T4 construct: also called mPD-1
T4 sequence (looked up): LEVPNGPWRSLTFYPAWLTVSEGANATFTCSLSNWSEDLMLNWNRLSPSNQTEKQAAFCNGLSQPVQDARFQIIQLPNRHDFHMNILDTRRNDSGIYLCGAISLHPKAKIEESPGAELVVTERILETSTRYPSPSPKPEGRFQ
In words: affinity measured in PD-L2-Fc format; method not named.

Test [6] has as its target T3, human PD-1. The description is as above.

Consider five molecules from patent US20230167164A1 (IMMUNOWAKE, published 2023).

Residue numbers refer to the chain shown, from its start. Names may count otherwise.

T2 sequence (Q99665 24-862, chain 2 of 2, other chains not shown): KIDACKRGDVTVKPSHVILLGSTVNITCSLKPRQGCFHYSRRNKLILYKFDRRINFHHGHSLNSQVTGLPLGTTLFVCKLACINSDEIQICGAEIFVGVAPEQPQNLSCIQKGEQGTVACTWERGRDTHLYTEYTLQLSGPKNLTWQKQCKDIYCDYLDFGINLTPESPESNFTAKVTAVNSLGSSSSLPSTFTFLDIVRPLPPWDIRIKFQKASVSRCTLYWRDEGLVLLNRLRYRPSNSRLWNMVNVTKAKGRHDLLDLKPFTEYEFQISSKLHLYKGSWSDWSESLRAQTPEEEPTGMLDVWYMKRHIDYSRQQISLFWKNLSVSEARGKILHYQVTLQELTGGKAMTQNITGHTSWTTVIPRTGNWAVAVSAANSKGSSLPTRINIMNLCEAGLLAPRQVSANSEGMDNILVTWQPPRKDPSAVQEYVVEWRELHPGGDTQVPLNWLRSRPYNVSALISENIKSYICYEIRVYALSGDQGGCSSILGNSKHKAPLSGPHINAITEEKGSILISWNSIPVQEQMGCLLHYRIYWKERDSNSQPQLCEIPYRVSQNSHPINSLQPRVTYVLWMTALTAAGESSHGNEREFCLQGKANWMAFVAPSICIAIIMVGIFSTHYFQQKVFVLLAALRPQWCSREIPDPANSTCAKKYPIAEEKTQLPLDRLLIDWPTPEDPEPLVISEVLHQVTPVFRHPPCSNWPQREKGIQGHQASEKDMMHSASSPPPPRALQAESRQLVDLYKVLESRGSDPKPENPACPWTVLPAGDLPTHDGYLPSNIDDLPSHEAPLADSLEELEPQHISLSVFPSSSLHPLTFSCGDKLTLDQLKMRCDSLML

B1: Fab-IL-12(F60A)-Fc-CD8 Ab (other)
heavy 1: EVQLQQSGPELVKPGASVKMSCKASGYTFTDYYMKWVKQSHGKSLEWIGHINPNNDDTFYTQKFKGRATLTVDKSSSTAYMQLNSLTSEDSAVYYCVRDDYDGGWFAYWGQGTLVTVSSASTKGPSVFPLAPSSKSTSGGTAALGCLVKDYFPEPVTVSWNSGALTSGVHTFPAVLQSSGLYSLSSVVTVPSSSLGTQTYICNVNHKPSNTKVDKKVEPKSCDKPGSGIWELKKDVYVVELDWYPDAPGEMVVLTCDTPEEDGITWTLDQSSEVLGSGKTLTIQVKEAGDAGQYTCHKGGEVLSHSLLLLHKKEDGIWSTDILKDQKEPKNKTFLRCEAKNYSGRFTCWWLTTISTDLTFSVKSSRGSSDPQGVTCGAATLSAERVRGDNKEYEYSVECQEDSACPAAEESLPIEVMVDAVHKLKYENYTSSFFIRDIIKPDPPKNLQLKPLKNSRQVEVSWEYPDTWSTPHSYFSLTFCVQVQGKSKREKKDRVFTDKTSATVICRKNASISVRAQDRYYSSSWSEWASVPCSGGGGSGGGGSGGGGSGGGGSGRNLPVATPDPGMFPCLHHSQNLLRAVSNMLQKARQTLEFYPCTSEEIDHEDITKDKTSTVEACLPLELTKNESCLNSRETSFITNGSCLASRKTSFMMALCLSSIYEDLKMYQVEFKTMNAKLLMDPKRQIFLDQNMLAVIDELMQALNFNSETVPQKSSLEEPDFYKTKIKLCILLHAFRIRAVTIDRVMSYLNASDKTHTCPPCPAPEDEGGPSVFLFPPKPKDTLMISRTPEVTCVVVDVSHEDPEVKFNWYVDGVEVHNAKTKPREEQYNSTYRVVSVLTVLHQDWLNGKEYKCKVSNKALPAPIEKTISKAKGQPREPQVYVYPPSREEMTKNQVSLTCLVKGFYPSDIAVEWESNGQPENNYKTTPPVLDEDGSFALVSKLTVDKSRWQQGNVFSCSVMHEALHNHYTQKSLSLSPGK
heavy 2: EVQLQQSGPELVKPGASVKMSCKASGYTFTDYYMKWVKQSHGKSLEWIGHINPNNDDTFYTQKFKGRATLTVDKSSSTAYMQLNSLTSEDSAVYYCVRDDYDGGWFAYWGQGTLVTVSSASTKGPSVFPLAPSSKSTSGGTAALGCLVKDYFPEPVTVSWNSGALTSGVHTFPAVLQSSGLYSLSSVVTVPSSSLGTQTYICNVNHKPSNTKVDKKVEPKSCDKTHTCPPCPAPEKKGGPSVFLFPPKPKDTLMISRTPEVTCVVVDVSHEDPEVKFNWYVDGVEVHNAKTKPREEQYNSTYRVVSVLTVLHQDWLNGKEYKCKVSNKALPAPIEKTISKAKGQPREPQVYVLPPSREEMTKNQVSLLCLVKGFYPSDIAVEWESNGQPENRYMTWPPVLDSDGSFFLYSKLTVDKSRWQQGNVFSCSVMHEALHNHYTQKSLSLSPGK
light: DIQMTQTTSSLSASLGDRVTISCRASQDINNYLNWYQQKSDGTIKLLIYYTSRSYSGVPSRFSGSGSGTDYSLTISNRRQEDIATYFCQQGKTLPWTFGGGTKLEIKRTVAAPSVFIFPPSDEQLKSGTASVVCLLNNFYPREAKVQWKVDNALQSGNSQESVTEQDSKDSTYSLSSTLTLSKADYEKHKVYACEVTHQGLSSPVTKSFNRGEC
Regarding B1, the binding result in the test with human CD4 on cells was “no binding”. Besides, the “IFN-γ release, % of rIL-12, activated CD4+ T cells” value in test [1] is 1.2%.

B2: IL-12(E59A/F60A)/anti-PD-1(D100G) (other)
heavy 1: QVQLVESGGGVVQPGRSLRLDCKASGITFSNSGMHWVRQAPGKGLEWVAVIWYDGSKRYYADSVKGRFTISRDNSKNTLFLQMNSLRAEDTAVYYCATNGDYWGQGTLVTVSSASTKGPSVFPLAPSSKSTSGGTAALGCLVKDYFPEPVTVSWNSGALTSGVHTFPAVLQSSGLYSLSSVVTVPSSSLGTQTYICNVNHKPSNTKVDKKVEPKSCDKPGSGIWELKKDVYVVELDWYPDAPGEMVVLTCDTPEEDGITWTLDQSSEVLGSGKTLTIQVKAAGDAGQYTCHKGGEVLSHSLLLLHKKEDGIWSTDILKDQKEPKNKTFLRCEAKNYSGRFTCWWLTTISTDLTFSVKSSRGSSDPQGVTCGAATLSAERVRGDNKEYEYSVECQEDSACPAAEESLPIEVMVDAVHKLKYENYTSSFFIRDIIKPDPPKNLQLKPLKNSRQVEVSWEYPDTWSTPHSYFSLTFCVQVQGKSKREKKDRVFTDKTSATVICRKNASISVRAQDRYYSSSWSEWASVPCSGGGGSGGGGSGGGGSGGGGSGRNLPVATPDPGMFPCLHHSQNLLRAVSNMLQKARQTLEFYPCTSEEIDHEDITKDKTSTVEACLPLELTKNESCLNSRETSFITNGSCLASRKTSFMMALCLSSIYEDLKMYQVEFKTMNAKLLMDPKRQIFLDQNMLAVIDELMQALNFNSETVPQKSSLEEPDFYKTKIKLCILLHAFRIRAVTIDRVMSYLNASDKTHTCPPCPAPEDEGGPSVFLFPPKPKDTLMISRTPEVTCVVVDVSHEDPEVKFNWYVDGVEVHNAKTKPREEQYNSTYRVVSVLTVLHQDWLNGKEYKCKVSNKALPAPIEKTISKAKGQPREPQVYVYPPSREEMTKNQVSLTCLVKGFYPSDIAVEWESNGQPENNYKTTPPVLDEDGSFALVSKLTVDKSRWQQGNVFSCSVMHEALHNHYTQKSLSLSPGK
heavy 2: QVQLVESGGGVVQPGRSLRLDCKASGITFSNSGMHWVRQAPGKGLEWVAVIWYDGSKRYYADSVKGRFTISRDNSKNTLFLQMNSLRAEDTAVYYCATNGDYWGQGTLVTVSSASTKGPSVFPLAPSSKSTSGGTAALGCLVKDYFPEPVTVSWNSGALTSGVHTFPAVLQSSGLYSLSSVVTVPSSSLGTQTYICNVNHKPSNTKVDKKVEPKSCDKTHTCPPCPAPEKKGGPSVFLFPPKPKDTLMISRTPEVTCVVVDVSHEDPEVKFNWYVDGVEVHNAKTKPREEQYNSTYRVVSVLTVLHQDWLNGKEYKCKVSNKALPAPIEKTISKAKGQPREPQVYVLPPSREEMTKNQVSLLCLVKGFYPSDIAVEWESNGQPENRYMTWPPVLDSDGSFFLYSKLTVDKSRWQQGNVFSCSVMHEALHNHYTQKSLSLSPGK
light: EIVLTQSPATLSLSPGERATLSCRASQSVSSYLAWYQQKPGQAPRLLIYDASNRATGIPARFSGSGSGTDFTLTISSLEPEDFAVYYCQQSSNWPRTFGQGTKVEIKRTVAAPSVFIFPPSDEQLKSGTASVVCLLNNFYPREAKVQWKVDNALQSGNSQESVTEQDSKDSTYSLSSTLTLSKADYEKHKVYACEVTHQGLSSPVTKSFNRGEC
For B2, the Kd (in general, the concentration at which binding is half-saturated) in the test with human PD-1 [2] was determined as 130 nM. The molecule also had a Kd with human PD-1 [3] of 130 nM. Further, the “IL-12 signal transduction, % of rIL-12, HEK-IL-12 cells” value in test [4] is < 0.2%. Besides, in test [5], the “IL-12 signal transduction, % of rIL-12, HEK-IL-12-PD-1 (high)” value (“IL-12 signal transduction, % … (high)” for short) stood at 33% and the “IL-12 signal transduction, % of rIL-12, HEK-IL-12-PD-1 (low)” value (from here on “IL-12 signal transduction, % … (low)”) came to 17%.

B3: IL-12(E59A/F60A)/anti-PD-1(D100R) (other)
heavy 1: B2 heavy 1 with G100R
heavy 2: B2 heavy 2 with G100R
light: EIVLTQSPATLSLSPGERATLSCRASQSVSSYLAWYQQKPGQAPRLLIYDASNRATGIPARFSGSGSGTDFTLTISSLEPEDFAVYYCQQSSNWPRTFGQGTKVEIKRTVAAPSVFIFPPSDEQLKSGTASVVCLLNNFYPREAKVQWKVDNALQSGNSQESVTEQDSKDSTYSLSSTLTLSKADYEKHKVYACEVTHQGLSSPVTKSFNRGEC
Take B3: the Kd with human PD-1 [2] and with human PD-1 [3] was 910 nM throughout. The “IL-12 signal transduction, % of rIL-12, HEK-IL-12 cells” value in test [4] is < 0.2%. Further, the “IL-12 signal transduction, % … (high)” value in test [5] worked out at 10%. In addition, in test [5], the “IL-12 signal transduction, % … (low)” value was 3%.

B4: IL-12(E59A/F60A)/anti-PD-1(D100N) (other)
heavy 1: B2 heavy 1 with G100N
heavy 2: B2 heavy 2 with G100N
light: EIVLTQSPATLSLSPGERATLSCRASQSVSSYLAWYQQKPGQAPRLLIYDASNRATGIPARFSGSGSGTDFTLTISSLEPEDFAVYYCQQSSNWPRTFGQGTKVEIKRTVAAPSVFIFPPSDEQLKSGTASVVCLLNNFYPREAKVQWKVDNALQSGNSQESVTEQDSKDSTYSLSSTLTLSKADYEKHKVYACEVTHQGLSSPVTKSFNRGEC
With B4, in the test with human PD-1 [2], the Kd was determined as 25 nM. In the test with human PD-1 [3], this molecule had a Kd of 25 nM. Moreover, the “IL-12 signal transduction, % of rIL-12, HEK-IL-12 cells” value in test [4] is < 0.2%. Besides, in test [5], the “IL-12 signal transduction, % … (high)” value was 38% and the “IL-12 signal transduction, % … (low)” value was 33%.

B5: PD-L2(wt)-Fc (Fc fusion)
chain 1: LFTVTVPKELYIIEHGSNVTLECNFDTGSHVNLGAITASLQKVENDTSPHRERATLLEEQLPLGKASFHIPQVQVRDEGQYQCIIIYGVAWDYKYLTLKVKASYRKINTHILKVPETDEVELTCQATGYPLAEVSWPNVSVPANTSHSRTPEGLYQVTSVLRLKPPPGRNFSCVFWNTHVRELTLASIDLQSQMEPRTHPTDKTHTCPPCPAPEDEGGPSVFLFPPKPKDTLMISRTPEVTCVVVDVSHEDPEVKFNWYVDGVEVHNAKTKPREEQYNSTYRVVSVLTVLHQDWLNGKEYKCKVSNKALPAPIEKTISKAKGQPREPQVYVYPPSREEMTKNQVSLTCLVKGFYPSDIAVEWESNGQPENNYKTTPPVLDEDGSFALVSKLTVDKSRWQQGNVFSCSVMHEALHNHYTQKSLSLSPGK
chain 2: B5 chain 1 with D215K, E216K, Y332L, T347L, N371R, K373M, T375W, E381S, A386F, V388Y
notes: also called None
Consider B5, for which the figures for the Kd with mouse PD-1 and with human PD-1 [6] were 980 nM and 1200 nM, respectively.
